# From patent US20100267638A1, “EXOSITE-DIRECTED THROMBIN INHIBITORS” (CLEVELAND STATE UNIVERSITY, priority 2003, published 2010)
# No end group written: not given here. *: point of attachment. SO3 = O=S(=O)(O)*
# Key:
# [1] = Clotting time as a function of peptide concentration (FIG. 12); settings: peptide 500 nM
# From the text: FIG. 12 is a graph illustrating clotting time as a function of concentration of various peptides of interest as follows: DYDYQ (SEQ ID NO. 11) (filled squares); DYDYQ (1, 2) (or as designated in shorthand form, D5Q1,2) (SEQ ID NO. 9) (filled triangles); DYDYQ-1 (SEQ ID NO. 7) (filled inverted triangles); and DYDYQ-2 (SEQ ID NO. 8) (filled diamonds).
# intrinsic tenase = intrinsic tenase (Homo sapiens, UniProt P00451+P00740); assay: Inhibition of intrinsic tenase; assay type: biochemical; settings: FIG. 11A
# intrinsic tenase, sequence (P00740 227-461 limits assumed): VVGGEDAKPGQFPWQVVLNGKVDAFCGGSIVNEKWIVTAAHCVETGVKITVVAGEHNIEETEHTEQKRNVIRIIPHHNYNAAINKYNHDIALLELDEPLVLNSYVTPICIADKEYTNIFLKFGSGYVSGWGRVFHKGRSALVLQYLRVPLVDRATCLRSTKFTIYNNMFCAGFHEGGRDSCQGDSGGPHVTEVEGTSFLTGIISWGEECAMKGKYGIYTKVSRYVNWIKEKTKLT
# intrinsic tenase, sequence (P00451 1709-2351 limits assumed): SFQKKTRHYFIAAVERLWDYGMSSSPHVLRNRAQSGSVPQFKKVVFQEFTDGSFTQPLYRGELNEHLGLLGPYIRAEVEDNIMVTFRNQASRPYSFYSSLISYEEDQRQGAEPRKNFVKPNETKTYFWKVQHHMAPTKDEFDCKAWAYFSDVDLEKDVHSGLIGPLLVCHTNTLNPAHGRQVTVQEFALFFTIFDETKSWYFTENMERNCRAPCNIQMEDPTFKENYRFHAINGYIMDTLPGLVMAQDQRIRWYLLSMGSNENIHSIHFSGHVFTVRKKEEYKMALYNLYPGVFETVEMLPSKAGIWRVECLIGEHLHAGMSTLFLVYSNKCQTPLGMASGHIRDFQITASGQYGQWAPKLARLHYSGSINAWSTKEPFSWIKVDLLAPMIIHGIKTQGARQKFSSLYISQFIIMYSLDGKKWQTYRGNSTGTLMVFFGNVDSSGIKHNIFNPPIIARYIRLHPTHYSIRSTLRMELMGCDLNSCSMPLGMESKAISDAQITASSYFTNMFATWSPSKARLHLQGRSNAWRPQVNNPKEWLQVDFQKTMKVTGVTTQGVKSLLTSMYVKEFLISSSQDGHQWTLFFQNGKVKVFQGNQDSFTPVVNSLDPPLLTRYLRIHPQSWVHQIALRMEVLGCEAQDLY
# From the text: FIG. 11A illustrates inhibition of intrinsic tenase by the double sulfonated peptide DYDYQ (1, 2) (SEQ ID NO. 9). […] As is shown in FIG. 11A, as the concentration of DYDYQ (1, 2) is increased, the reduction in activity is dramatic.
# FIG. 11B and its insert panel illustrate the effect of increasing concentration of the peptide DYDYQ (1, 2) (SEQ ID NO. 9) upon the reaction kinetics of intrinsic tenase. Specifically, this figure illustrates the kinetics of inhibition of intrinsic tenase in the presence of the double sulfonated peptide DYDYQ (1, 2). In FIG. 11B, the data are plotted as Vo (initial velocity in arbitrary units) as a function of increasing factor X concentration in the presence of increasing concentration of DYDYQ (1, 2). The concentrations of DYDYDQ (1, 2), in addition with factor VIIIa, are 10 nM (filled triangles), 25 nM (filled diamonds), and 50 nM (filled circles). Control curves of factors VIIIa and IXa (filled squares) and factor IXa (inverted triangles) are also noted. The insert panel of FIG. 11B is presented for greater clarity and details the region of factor X concentration up to 300 nM, and without the curve of 50 nM of DYDYQ (1, 2).
# thrombin [2] = target: T1, thrombin (Homo sapiens, UniProt P00734); assay: Inhibition of activation of factor VIII by thrombin (SDS-PAGE); assay type: biochemical; set-up: Factor Xa cleaves prothrombin to form thrombin; settings: FIG. 9A
# From the text: Specifically, FIG. 9A illustrates the inhibition of activation of factor VIII by thrombin, the inhibition resulting from the double sulfonated peptide DYDYQ (1, 2) (SEQ ID NO. 9) binding to thrombin. FIG. 9B illustrates the inhibition of activation of factor V by thrombin, the inhibition resulting from the double sulfonated peptide DYDYQ (1, 2) (SEQ ID NO. 9) binding to thrombin. FIGS. 9A and 9B result from analysis by SDS-PAGE as previously described with regard to FIG. 4(A and B). […] The various fragments of each factor are noted on the right hand side of each figure.
# prothrombinase = target: T2, prothrombinase (Homo sapiens, UniProt P00734); assay: Assay measuring thrombin formation (prothrombinase inhibition by peptides, DAPA fluorescence); assay type: biochemical
# T2 construct: purchased Haematologic Technologies Inc. (Essex Junction, Vt.)
# Method: Assay measuring thrombin formation. The formation of thrombin was analyzed using the fluorescent thrombin inhibitor DAPA as described using a Perkin Elmer LS-50B Luminescence Spectrometer (Perkin-Elmer LLC, Norwalk Conn.) with λex=280 nm, λem=550 nm and a 500 nm long pass filter in the emission beam (Schott KV-500). […] In all cases peptides were preincubated with factor tor Va prior to the assay as described in the legend to the figures. The final concentration of factor tor Va in the mixture was 4 nM with factor Xa at 10 nM, prothrombin at 350 nM, DAPA at 700 nM, in the presence of PCPS vesicles (10 μM). The initial rate of thrombin formation (nM IIa·min^−1) was calculated as described during the initial 5-10 sec of the reaction. To verify if the peptides have any effect on the active-site of thrombin, control experiments were performed as follows: a given peptide (at 100 μM) was incubated in the assay buffer containing DAPA (700 nM); the base line was monitored for 30 sec; thrombin (350 nM) was then added to the mixture and the fluorescent intensity resulting from the complexation of DAPA with the active site of thrombin was monitored for 60 sec. The slope of the reaction measuring thrombin formation in the presence of a given peptide during the first 5 sec was calculated and compared to the slope of a reaction obtained in the absence of peptide. It is noteworthy that under the conditions employed the thrombin-DAPA interaction occurred fast and the calculated slope of the reaction was sensitive to all parameters used. […] All experiments were performed in triplicates or as indicated. The concentration of each peptide given in the figures and figure legends is their final concentration in the assay. […] In some cases the data were also analyzed and plotted using DeltaGraph (DeltaPoint, Monterey, Calif.).
# Specifically, peptides were incubated with factor tor Va as described herein at a fixed concentration (100 μM). The percent of factor tor Va cofactor activity was calculated by comparing the activity of prothrombinase in the presence of a given peptide to the activity of prothrombinase determined in a control reaction in the absence of peptide and in the presence of factor Xa. […] The control peptide represents a pentadecapeptide from the middle portion of factor tor Va heavy chain (P15H) (SEQ ID NO. 22). […] All other peptides from region 680-709 had no significant effect on prothrombinase activity.
# HC3 represents amino acid sequence 690-699 of factor tor Va heavy chain; HC4 contains the sequence 695-704 of human factor tor Va heavy chain; P15H represents amino acid sequence 337-351 from the middle portion of human factor tor Va heavy chain. […] The concentration of each peptide given on the x axis represents its final concentration in the prothrombinase mixture. […] Thus, both peptides show similar inhibitory potential.
# thrombin [3] = target: T1, thrombin; assay: Activation of plasma factor V by thrombin preincubated with peptide (SDS-PAGE, immunoblotting); assay type: biochemical; set-up: Factor Xa cleaves prothrombin to form thrombin; purchased Haematologic Technologies Inc. (Essex Junction, Vt.); settings: FIG. 9B
# Method: Gel Electrophoresis and western blotting. Sodium dodecyl sulfate polyacrylamide gel electrophoresis (SDS-PAGE) analyses were performed using 4-12% gradient gels according to the method of Laemmli. In several experiments, proteins were transferred to polyvinylidene difluoride (PVDF) membranes according to the method described by Towbin et al. After transfer to nitrocellulose, factor V heavy and light chain(s) were detected using the appropriate monoclonal and polyclonal antibodies. Immunoreactive fragments were visualized with chemiluminescence.
# Factor V (250 nM) was incubated with thrombin (1 nM). And FIG. 4B illustrates thrombin (1 nM) was preincubated with 100 μM peptide DYDYQ and the mixture was added to factor V (250 nM). […] Fragments were identified following staining with monoclonal antibody αHFV#17 that recognizes an epitope between amino acid residues 307-506 of factor V and chemiluminescence as described. Lane 1 in both panels depicts aliquots of the mixture withdrawn from the reaction before the addition of thrombin or thrombin/peptide mixture while lanes 2-7 show aliquots of the reaction mixture withdrawn at 30 sec, 1 min, 3 min, 5 min, 10 min, 15 min following the addition of thrombin alone or of thrombin/peptide mixture. The time of incubation is shown at the bottom of the figure. Position of the molecular weight markers is indicated at left.
substance,measurement,setting,value
"DY(—SO3)DY(−SO3)Q (DY(SO3)DY(SO3)Q) [DYDYQ-1,2, double sulfonated peptide DYDYQ]",clotting time,[1],relatively long clotting times
same,rank of clotting time among peptides,[1],longest clotting time
same,inhibition of intrinsic tenase,intrinsic tenase,dramatic reduction
same,inhibition of activation of factor VIII by thrombin,thrombin [2],potent inhibitor
same,rank of inhibitory effect on prothrombinase among peptides,prothrombinase; FIG. 10A,greatest inhibitory effect
same,inhibition of prothrombinase activity with increasing peptide,"prothrombinase; FIG. 10A, up to 8000 nM",significant inhibitory effects
same,type of inhibition of prothrombinase with respect to prothrombin,"prothrombinase; kinetic analyses, increasing prothrombin and peptide",competitive inhibition mechanism
same,inhibition of activation of factor V by thrombin,thrombin [3],potent inhibitor
